Measurements published in US20140004106A1.

Assays:
[1] = molecular target: 28mer peptide of the CXCR5 antigen; assay: Antigen-ELISA; Acetate 10 mM pH 5.00, T0
[2] = molecular target: 28mer peptide of the CXCR5 antigen; assay: Ag-ELISA; DS in PBS, 5°C, 3 months
[3] = molecular target: 28mer peptide of the CXCR5 antigen; assay: ELISA potency (binding); 100 mg/mL, Trehalose (60) + NaCl (2), 7 days at 40°C
[4] = molecular target: 28mer peptide of the CXCR5 antigen; assay: Antigen-ELISA; Arginine 10 mM pH 6, T0
[5] = molecular target: 28mer peptide of the CXCR5 antigen; assay: Antigen-ELISA; Glycine 10 mM pH 7, after 1 week at +40°C
[6] = molecular target: 28mer peptide of the CXCR5 antigen; assay: Antigen-ELISA; acetate 10 mM prototype C, T0
[7] = molecular target: 28mer peptide of the CXCR5 antigen; assay: Antigen-ELISA; histidine 10 mM prototype D, T0
[8] = molecular target: 28mer peptide of the CXCR5 antigen; assay: Antigen-ELISA; Acetate 10 mM pH 5.50, after 1 week at +40°C
[9] = molecular target: 28mer peptide of the CXCR5 antigen; assay: Potency (Antigen ELISA); stored +5°C, initial
[10] = molecular target: 28mer peptide of the CXCR5 antigen; assay: Antigen-ELISA; PBS 155 mM pH 6.50, T0
[11] = molecular target: 28mer peptide of the CXCR5 antigen; assay: Antigen-ELISA; PBS 155 mM pH 6.50, after 1 week at +40°C
[12] = molecular target: 28mer peptide of the CXCR5 antigen; assay: Ag-ELISA; DS in PBS, -20°C, 1 month
[13] = molecular target: 28mer peptide of the CXCR5 antigen; assay: Antigen-ELISA; standard, repeated values in the 3 weeks -20°C
[14] = molecular target: 28mer peptide of the CXCR5 antigen; assay: Potency (Antigen ELISA); stored -20°C, 9 months
[15] = molecular target: 28mer peptide of the CXCR5 antigen; assay: Antigen-ELISA; PBS 155 mM, polypropylene, 24 h +40°C
[16] = molecular target: 28mer peptide of the CXCR5 antigen; assay: Ag-ELISA; DS in PBS, -20°C, 3 months
[17] = molecular target: 28mer peptide of the CXCR5 antigen; assay: Antigen-ELISA; citrate 10 mM prototype C, T0
[18] = molecular target: 28mer peptide of the CXCR5 antigen; assay: Antigen-ELISA; Histidine 10 mM pH 6, after 1 week at +40°C
[19] = molecular target: 28mer peptide of the CXCR5 antigen; assay: Antigen-ELISA; Citrate 10 mM pH 6.50, T0
[20] = molecular target: 28mer peptide of the CXCR5 antigen; assay: Potency (Antigen ELISA); stored -20°C, 6 months
[21] = molecular target: 28mer peptide of the CXCR5 antigen; assay: Antigen-ELISA; PBS 155 mM pH 7.50, after mechanical stress 350 rpm 2.5 h
[22] = molecular target: 28mer peptide of the CXCR5 antigen; assay: Potency (Antigen ELISA); stored +25°C, 1 month
[23] = molecular target: 28mer peptide of the CXCR5 antigen; assay: Antigen-ELISA; Acetate 10 mM pH 5.50, T0
[24] = molecular target: 28mer peptide of the CXCR5 antigen; assay: Antigen-ELISA; PB 10 mM pH 7.50, T0
[25] = molecular target: 28mer peptide of the CXCR5 antigen; assay: Potency (Antigen ELISA); stored +5°C, 6 months
[26] = molecular target: 28mer peptide of the CXCR5 antigen; assay: Antigen-ELISA; PBS 155 mM, clear glass type I as T0, 24 h
[27] = molecular target: 28mer peptide of the CXCR5 antigen; assay: Antigen-ELISA; Saline 150 mM pH 6.00, T0
[28] = molecular target: 28mer peptide of the CXCR5 antigen; assay: Antigen-ELISA; PB 10 mM pH 7.00, after mechanical stress 350 rpm 2.5 h

B1: Lead CXCR5 Antibody (humanized IgG4 anti-CXCR5 antibody) (antibody, V domains shown)
VH: QVQLKESGPGLVAPSESLSITCTVSGFSLIDYGVNWIRQPPGKGLEWLGVIWGDGTTYYNPSLKSRLSISKDNSKSQVFLKVTSLTTDDTAMYYCARIVYWGQGTLVTVSA
VL: DIVMTQAAPSVAVTPGASVSISCRSSKSLLHSSGKTYLYWFLQRPGQSPQLLIYRLSSLASGVPDRFSGSGSGTAFTLRISRVEAEDVGVYYCMQHLEYPYTFGGGTKLEIKR
- EC50 % [1]: 147%
- EC50 % [2]: 112%
- rel. potency [%] [3]: 191%
- EC50 % [4]: 114%
- EC50 % [5]: 65%
- EC50 % [6]: 142%
- EC50 % [7]: 169%
- EC50 % [8]: 94.9%
- EC50 value (in comparison to reference) [9]: 75%
- EC50 % [10]: 139%
- EC50 % [11]: 115%
- EC50 % [12]: 132%
- EC50 % [13]: 100%
- EC50 value (in comparison to reference) [14]: 101%
- EC50 % [15]: 107%
- EC50 % [16]: 93%
- EC50 % [17]: 104%
- EC50 % [18]: 77%
- EC50 % [19]: 59%
- EC50 value (in comparison to reference) [20]: 96%
- EC50 % [21]: 71%
- EC50 value (in comparison to reference) [22]: 121%
- EC50 % [23]: 180%
- EC50 % [24]: 117%
- EC50 value (in comparison to reference) [25]: 97%
- EC50 % [26]: 62.3%
- EC50 % [27]: 96.2%
- EC50 % [28]: 61.4%
